From patent US20240400614A1, “CLEAVABLE PEPTIDES AND METHODS OF USE THEREOF” (Bright Peak Therapeutics AG, priority 2023, published 2024)
Square brackets hold non-standard residues; d marks the D form. Ends that are not written are not given here. Tyr(3-NO2) = N[C@@H](Cc1ccc(O)c([N+](=O)[O-])c1)C(=O)O; 2Abz = Nc1ccccc1C(=O)O

Tests used:
Assay type in all cases: biochemical
MMP-2 = target: T1, MMP-2 (Homo sapiens, UniProt P08253); assay: FRET peptide cleavage efficiency with MMP-2
T1 construct: purchased SIGMA PF023
T1 sequence (P08253 110-660): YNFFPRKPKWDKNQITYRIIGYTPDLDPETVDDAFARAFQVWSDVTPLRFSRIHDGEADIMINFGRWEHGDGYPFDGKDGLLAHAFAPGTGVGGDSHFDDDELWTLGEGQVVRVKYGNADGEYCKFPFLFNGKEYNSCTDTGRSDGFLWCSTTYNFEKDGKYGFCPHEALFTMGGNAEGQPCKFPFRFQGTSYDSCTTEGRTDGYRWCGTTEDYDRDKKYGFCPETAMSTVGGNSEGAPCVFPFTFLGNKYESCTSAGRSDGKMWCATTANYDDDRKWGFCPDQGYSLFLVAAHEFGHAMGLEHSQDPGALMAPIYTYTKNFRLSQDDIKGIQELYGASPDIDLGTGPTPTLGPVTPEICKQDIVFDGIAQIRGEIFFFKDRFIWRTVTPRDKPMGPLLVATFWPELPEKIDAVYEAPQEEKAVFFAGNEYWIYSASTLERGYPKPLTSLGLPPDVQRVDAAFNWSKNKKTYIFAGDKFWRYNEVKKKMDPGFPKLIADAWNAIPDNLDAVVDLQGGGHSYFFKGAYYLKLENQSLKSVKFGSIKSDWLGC

uPA = uPA (Homo sapiens, UniProt P00749); assay: FRET peptide cleavage efficiency with uPA
matriptase = target: T2, matriptase (Homo sapiens, UniProt Q9Y5Y6); assay: FRET peptide cleavage efficiency with matriptase
T2 construct: purchased R&D Systems 3946-SEB
T2 sequence (Q9Y5Y6 615-855 limits assumed): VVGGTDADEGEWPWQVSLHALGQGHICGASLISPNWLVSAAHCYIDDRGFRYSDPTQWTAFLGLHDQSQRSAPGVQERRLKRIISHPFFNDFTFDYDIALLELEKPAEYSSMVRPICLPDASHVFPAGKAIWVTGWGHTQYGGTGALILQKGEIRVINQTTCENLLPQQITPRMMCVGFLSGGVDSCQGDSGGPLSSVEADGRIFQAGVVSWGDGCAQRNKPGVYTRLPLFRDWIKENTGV

[1] = 200 uM linker, 1 ug/ml protease, 37° C., buffer C pH 7.5
[2] = 200 uM linker, 1 ug/ml protease, 37° C., buffer A pH 8.5
[3] = 200 uM linker, 1 ug/ml protease, 37° C., buffer B pH 9.0

Substance	% cleavage MMP-2 t = 15 min (MMP-2; [1])	% cleavage MMP-2 t = 60 min (MMP-2; [1])	% cleavage MMP-2 t = 120 min (MMP-2; [1])	% cleavage uPA t = 15 min (uPA; [2])	% cleavage uPA t = 60 min (uPA; [2])	% cleavage uPA t = 120 min (uPA; [2])	% cleavage Matriptase t = 15 min (matriptase; [3])	% cleavage Matriptase t = 60 min (matriptase; [3])	% cleavage Matriptase t = 120 min (matriptase; [3])	% cleavage uPA t = 15 min (uPA)	% cleavage uPA t = 60 min (uPA)	% cleavage uPA t = 120 min (uPA)	% cleavage Matriptase t = 15 min (matriptase)	% cleavage Matriptase t = 60 min (matriptase)	% cleavage Matriptase t = 120 min (matriptase)	% cleavage MMP-2 t = 15 min (MMP-2)	% cleavage MMP-2 t = 60 min (MMP-2)	% cleavage MMP-2 t = 120 min (MMP-2)
KLFSSKQ ([2Abz]KLFSSKQ[Tyr(3-NO2)]-NH2) [LNK072]	1%	13%	25%															
SGRVLPANLVG ([2Abz]SGRVLPANLVG[Tyr(3-NO2)]-NH2) [LNK015]	94%	99%	98%	0%	0%	1%	25%	78%	96%									
RQRRSAAPLGLAG ([2Abz]RQRRSAAPLGLAG[Tyr(3-NO2)]-NH2) [LNK028]	72%	99%	99%	0%	1%	2%	97%	86%	79%									
SSRVFRKPANLAG ([2Abz]SSRVFRKPANLAG[Tyr(3-NO2)]-NH2) [LNK019]	84%	99%	99%	4%	6%	10%	90%	97%	97%									
SGRVLPYAMTA ([2Abz]SGRVLPYAMTA[Tyr(3-NO2)]-NH2) [LNK024]	55%	97%	99%	1%	0%	1%	44%	92%	98%									
SGRVLPAGLVG ([2Abz]SGRVLPAGLVG[Tyr(3-NO2)]-NH2) [LNK007]	99%	95%	94%	0%	0%	1%	23%	79%	97%									
RYGKSAPLGLAG ([2Abz]RYGKSAPLGLAG[Tyr(3-NO2)]-NH2) [LNK027]	66%	99%	99%	3%	9%	17%	99%	97%	98%									
SGRVLTLRKAALPLAM ([2Abz]SGRVLTLRKAALPLAM[Tyr(3-NO2)]-NH2) [LNK020]	55%	98%	99%	11%	26%	45%	98%	99%	99%									
SSRGPASNRRLPLGLAG ([2Abz]SSRGPASNRRLPLGLAG[Tyr(3-NO2)]-NH2) [LNK001]	54%	98%	99%	4%	17%	30%	77%	99%	99%									
SGRVLTLRKAGPANLVG ([2Abz]SGRVLTLRKAGPANLVG[Tyr(3-NO2)]-NH2) [LNK012]	97%	97%	94%	0%	15%	34%	99%	99%	98%									
SGRVLTLRKAGPAGLVG ([2Abz]SGRVLTLRKAGPAGLVG[Tyr(3-NO2)]-NH2) [LNK011]	98%	99%	98%	6%	17%	35%	99%	99%	99%									
SGRVLGPAGLVG (Abz-SGRVLGPAGLVG[Tyr(3-NO2)]) [LNK005]										0%	0%	1%	15%	63%	86%	100%	98%	97%
SGRVLGPANLVG (Abz-SGRVLGPANLVG[Tyr(3-NO2)]) [LNK006]										0%	0%	1%	19%	71%	92%	98%	98%	96%
RQRRSAPLGLAG ([2Abz]RQRRSAPLGLAG[Tyr(3-NO2)]-NH2) [LNK009]	72%	99%	99%	0%	1%	3%	71%	45%	31%									
RQRRSVVGG ([2Abz]RQRRSVVGG[Tyr(3-NO2)]-NH2) [LNK029]	0%	0%	0%	0%	0%	1%	96%	96%	98%									
